Key:
AtUBC8 [1] = biological target: T1, AtUBC8 (Arabidopsis thaliana, UniProt P35131 1-148); experiment: ITC
AtUBC8 [2] = biological target: T1, AtUBC8; experiment: ITC; remark: listed apart in the source

T1 sequence (P35131 whole entry): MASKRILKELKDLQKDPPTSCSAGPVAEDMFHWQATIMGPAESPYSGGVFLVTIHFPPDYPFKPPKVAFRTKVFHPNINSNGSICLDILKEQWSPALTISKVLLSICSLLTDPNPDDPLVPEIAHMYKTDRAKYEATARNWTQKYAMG

Kd (AtUBC8 [1]): 283 nM | Ka (AtUBC8 [2]): 3.53e+06 M⁻¹
B1: AtMUB3 (natural protein)
chain: MPEEESIDIKFRLYDGSDIGPFRYSAASTVDFLKQRVVSDWPKGKTVVPKGINEVKLISSGKILENNKTVGQCKTPFGDIAGGVIVMHVVVQPSLAKSKTEKKVDKAPKAVICTCTIL

Reference: publication PMC4996978 (2016)
